Assay results taken from publication doi:10.1101/2021.07.02.450934.

Biological target: wild-type Pseudomonas testosteroni ketosteroid isomerase (KSI) (Pseudomonas testosteroni)
Test: SEC

wild-type Pseudomonas testosteroni ketosteroid isomerase (KSI) (enzyme)
stoichiometry N: 2
